Assays:
[1] = molecular target: IL-12 (human, p35/p40 heterodimer) (Homo sapiens, UniProt P29459;P29460 SEQ:57-253,SEQ:23-328); test: filter; no significant binding
[2] = molecular target: T1, IL-23 (human, p19/p40 heterodimer) (Homo sapiens, UniProt Q9NPF7;P29460 SEQ:20-189,SEQ:23-328); test: cell_activity; TransAM STAT3; settings: tags: R&D Systems, carrier free
Protocol: In summary, the cell-based assay was conducted by isolating the peripheral blood mononuclear cells (PBMCs) from whole blood using a Histopaque gradient (Sigma, St. Louis, Mo.). The PBMCs were cultured for 3 to 5 days at 37° C./5% CO₂ in Peripheral Blood Medium (Sigma) which contains PHA, supplemented with IL-2 (100 units/mL) (R&D Systems, Minneapolis, Minn.), to generate PHA Blasts. To test IL-23 aptamers, the PHA Blasts were washed twice with 1×PBS, then serum starved for four hours in RPMI, 0.20% FBS. After serum starvation, approximately 2 million cells were aliquotted into appropriately labeled eppendorf tubes. hIL-23 at a final constant concentration of 3 ng/mL (R&D Systems, Minneapolis, Minn.) was combined with a dilution series of various IL-23 aptamers as described in Example 1, and the cytokine/aptamer mixture was added to the aliquotted cells in a final volume of 100 μl and incubated at 37° C. for 10-12 minutes. The incubation reaction was stopped by adding 1 mL of ice-cold PBS with 1.5 mM Na₃VO₄. Cell lysates were made using the lysis buffer provided by the TransAM™ STAT 3 assay following the manufacturer's instructions. FIG. 20 depicts a flow summary of the protocol used for the cell based assay.
Full length clones from the rRfY selection described in Example 1A, and select minimized rRfY clones that were described in Example 2A. 1, were tested using the TransAM™ STAT3 activation assay. Table 34 summarizes the cell based assay data for IL-23 full length aptamers generated from the rRfY selections described in Example 1A. 1, each compared to the activity of their respective parent (full length) clone.

[3] = molecular target: T1, IL-23 (human, p19/p40 heterodimer); test: filter; SHMCK, tRNA; settings: tags: R&D Systems, carrier free
Protocol: Monitoring Progress of rRfY Selection. Dot blot binding assays were performed throughout the selections to monitor the protein binding affinity of the pools. Trace ³²P-labeled RNA was combined with a dilution series of h-IL-23 and incubated at room temperature for 30 minutes in 1×SHMCK (20 mM Hepes, 120 mM NaCl, 5 mM KCl, 1 mM MgCl₂, 1 mM CaCl₂, pH 7.4) plus 0.1 mg/mL tRNA for a final volume of 20 μL. The binding reactions were analyzed by nitrocellulose filtration using a Minifold I dot-blot, 96-well vacuum filtration manifold (Schleicher & Schuell, Keene, N.H.). A three-layer filtration medium was used, consisting (from top to bottom) of Protran nitrocellulose (Schleicher & Schuell), Hybond-P nylon (Amersham Biosciences) and GB002 gel blot paper (Schleicher & Schuell). RNA that is bound to protein is captured on the nitrocellulose filter, whereas the non-protein bound RNA is captured on the nylon filter. The gel blot paper was included simply as a supporting medium for the other filters. Following filtration, the filter layers were separated, dried and exposed on a phosphor screen (Amersham Biosciences, Piscataway, N.J.) and quantified using a Storm 860 Phosphorimager® blot imaging system (Amersham Biosciences).
When a significant positive ratio of binding of RNA in the presence of h-IL-23 versus in the absence of h-IL-23 was seen, the pools were cloned using a TOPO TA cloning kit (Invitrogen, Carlsbad, Calif.) according to the manufacturer's instructions. For the h-IL-23 and X-IL-23 selections, the Round 8 pool templates were cloned, and 32 individual clones from each selections were assayed in a 1-point dot blot screen (+/−75 nM h-IL-23, as well as a separate screen at +/−75 nM h-IL-12). For the PN-IL-23 selection, the Round 10 pool was cloned and sequenced, and 8 unique clones were assayed for protein binding in a 1-point dot blot screen (+/−200 nM h-IL-23 and a separate screen at +/−200 nM h-IL-12). Subsequently, the Round 10 PN-IL-23 pool was re-cloned for further sequences, as well as the R12 PN-IL-23 pool, and the clones were assayed for protein binding in a 1 point do blot screen (+/−100 nM h-IL-23 or +/−200 nM h-IL-12).

T1 sequence (Q9NPF7 20-189, chain 1 of 2): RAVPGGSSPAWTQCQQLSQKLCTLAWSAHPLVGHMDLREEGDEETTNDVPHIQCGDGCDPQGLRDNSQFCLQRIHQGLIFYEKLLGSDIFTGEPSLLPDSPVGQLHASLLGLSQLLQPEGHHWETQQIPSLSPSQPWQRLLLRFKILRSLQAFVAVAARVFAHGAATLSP
T1 sequence (P29460 23-328, chain 2 of 2): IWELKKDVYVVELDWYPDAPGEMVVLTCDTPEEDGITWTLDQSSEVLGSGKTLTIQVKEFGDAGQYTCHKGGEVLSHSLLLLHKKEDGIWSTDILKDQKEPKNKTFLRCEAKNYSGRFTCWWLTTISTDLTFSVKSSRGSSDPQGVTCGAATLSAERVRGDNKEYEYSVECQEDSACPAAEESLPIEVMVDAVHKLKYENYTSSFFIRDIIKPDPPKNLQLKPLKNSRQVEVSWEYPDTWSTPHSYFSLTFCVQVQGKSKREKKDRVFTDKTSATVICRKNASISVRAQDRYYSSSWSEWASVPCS
IL-12 (human, p35/p40 heterodimer), sequence (P29459 23-219, chain 1 of 2): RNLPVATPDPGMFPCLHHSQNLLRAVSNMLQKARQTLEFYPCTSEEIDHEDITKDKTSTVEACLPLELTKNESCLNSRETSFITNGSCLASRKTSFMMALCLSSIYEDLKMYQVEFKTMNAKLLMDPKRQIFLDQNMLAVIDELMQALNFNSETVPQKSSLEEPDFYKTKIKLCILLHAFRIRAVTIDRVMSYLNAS
IL-12 (human, p35/p40 heterodimer), sequence (P29460 23-328, chain 2 of 2): as the sequence (P29460 23-328, chain 2 of 2) above

B1: AMX91-G7 (ssRNA)
RNA: GGGAAAAGCGAAUCAUACACAAGACAUGACUGCAUGCUUCGGGAGUAUCUCGGUCCCGACGUUCGCUCCGCCAGAGACCAACCGAGAA
modifications: 2'-F C,U
binding result [1]: no binding
IC50 [2]: 150 nM
Kd [3]: 63.6 nM

B2: AMX86-C7 (ssRNA)
RNA: GGGAAAAGCGAAUCAUACACAAGAUGCGCUAUGUUUGGCUGGGAAUUGUAGCAUUGCUCAAGUGGCUCCGCCAGAGACCAACCGAGAA
modifications: 2'-F C,U
binding result [1]: no binding
Kd [3]: 140 nM

B3: AMX91-A6 (ssRNA)
RNA: GGGAAAAGCGAAUCAUACACAAGAUUGGCAAUGUGACCUUCAACCCUUUUCCCGAUGAACAGUGGCUCCGCCAGAGACCAACCGAGAA
modifications: 2'-F C,U
binding result [1]: no binding
Kd [3]: 60.3 nM

B4: AMX91-G11 (ssRNA)
RNA: GGGAAAAGCGAAUCAUACACAAGACUUAACAGUGCGGGGCGCAGUGUAUAGAUCCGCAAUGUGUGCUCCGCCAGAGACCAACCGAGAA
modifications: 2'-F C,U
binding result [1]: no binding
Kd [3]: 104 nM

B5: AMX84-G11 (ssRNA)
RNA: GGGAAAAGCGAAUCAUACACAAGAGUGCUUCGUAUGUUGAAUACGACGUUCGCAGGACGAAUAUGCUCCGCCAGAGACCAACCGAGAA
modifications: 2'-F C,U
binding result [1]: no binding
IC50 [2]: 250 nM
Kd [3]: 291 nM

B6: Type 1.5 (ssRNA)
RNA: GGAGUACGCCGAAAGGCGCUUCCGAAAGGACGUCCGUAAGGGAUACUCC
modifications: 2'-F C,U
IC50 [2]: 80 nM

B7: AMX84-A11 (ssRNA)
RNA: GGGAAAAGCGAAUCAUACACAAGAGAGGUAUGUGGUUUUGCGGAGCAACUCGUGUCAGCGGUCAGCUCCGCCAGAGACCAACCGAGAA
modifications: 2'-F C,U
binding result [1]: no binding
Kd [3]: 17.8 nM

B8: AMX86-G9 (ssRNA)
RNA: GGGAAAAGCGAAUCAUACACAAGAUCCCAGCGGUACGUGAGUCUGUUAAAGGCCACCUAAUGUCGCUCCGCCAGAGACCAACCGAGAA
modifications: 2'-F C,U
binding result [1]: no binding
Kd [3]: 109 nM

B9: AMX91-B5 (ssRNA)
RNA: GGGAAAAGCGAAUCAUACACAAGACAGUGUAUGAGGAAGAUUACUUCCAUUCCUGAGCGGUUUUCGCUCCGCCAGAGACCAACCGAGAA
modifications: 2'-F C,U
binding result [1]: no binding
Kd [3]: 148 nM

B10: AMX84-E12 (ssRNA)
RNA: GGGAAAAGCGAAUCAUACACAAGAAGUUUUUGUGCUCUGAGUACUCAGCGUCCGUAAGGGAUAUGCUCCGCCAGAGACCAACCGAGAA
modifications: 2'-F C,U
binding result [1]: no binding
Kd [3]: 27.8 nM

B11: AMX91-H3 (ssRNA)
RNA: GGGAAAAGCGAAUCAUACACAAGACAUUGUGCUUUAUCACGUGGGUGAUAACGACGAAAGUUAUGCUCCGCCAGAGACCAACCGAGAA
modifications: 2'-F C,U
binding result [1]: no binding
IC50 [2]: 50 nM
Kd [3]: 266 nM

B12: AMX84-F11 (ssRNA)
RNA: GGGAAAAGCGAAUCAUACACAAGAUGUGCUUGAGUUAAAUCUCAUCGUCCCCGUUUGGGGAUAUGCUCCGCCAGAGACCAACCGAGAA
modifications: 2'-F C,U
IC50 [2]: 250 nM

B13: AMX86-A9 (ssRNA)
RNA: GGGAAAAGCGAAUCAUACACAAGAUCUACGAUUGUUCAGGUUUUUUGUACUCAACUAAAGGCGAGCUCCGCCAGAGACCAACCGAGAA
modifications: 2'-F C,U
binding result [1]: no binding
Kd [3]: 190 nM

B14: AMX86-E6 (ssRNA)
RNA: GGGAAAAGCGAAUCAUACACAAGAUCGCAAAAGGAGUUUGUCUCUGCUCUCGGAGUGUGUCAGUGCUCCGCCAGAGACCAACCGAGAA
modifications: 2'-F C,U
binding result [1]: no binding
Kd [3]: 51.3 nM

B15: F11.min2 (ssRNA)
RNA: GGACAUACACAAGAUGUGCUUGAGUUAAAUCUCAUCGUCCCCGUUUGGGGAUAUGUC
modifications: 2'-F C,U
IC50 [2]: 25 nM

B16: AMX86-C8 (ssRNA)
RNA: GGGAAAAGCGAAUCAUACACAAGAGUCGUGAUGAUUUGGGUUAUGUCAGUUCCCUGUAUGGUUUCGCUCCGCCAGAGACCAACCGAGAA
modifications: 2'-F C,U
binding result [1]: no binding
Kd [3]: 107 nM

B17: AMX86-F6 (ssRNA)
RNA: GGGAAAAGCGAAUCAUACACAAGAAUGUAUACAAUGCCCUAUCGUCAGUUAGGCAUGUGUGGAUGCUCCGCCAGAGACCAACCGAGAA
modifications: 2'-F C,U
binding result [1]: no binding
Kd [3]: 69.1 nM

B18: AMX84-C10 (ssRNA)
RNA: GGGAAAAGCGAAUCAUACACAAGAGAUGUAUUCAGGCGGUCCGCAUUGAUGUCAGUUAUGCGUAGCUCCGCCAGAGACCAACCGAGAA
modifications: 2'-F C,U
binding result [1]: no binding
IC50 [2]: 250 nM
Kd [3]: 94.3 nM

B19: AMX91-F11 (ssRNA)
RNA: GGGAAAAGCGAAUCAUACACAAGACGCGUCAGGUCCACGCUGAAAUUUAUUUUCGGCAGUGUAAGCUCCGCCAGAGACCAACCGAGAA
modifications: 2'-F C,U
binding result [1]: no binding
Kd [3]: 202 nM

B20: AMX91-H12 (ssRNA)
RNA: GGGAAAAGCGAAUCAUACACAAGACGUGUGCUUUAUGUAAACCAUAACGUUCCAUAAGGAAUAUGCUCCGCCAGAGACCAACCGAGAA
modifications: 2'-F C,U
binding result [1]: no binding
Kd [3]: 60.8 nM

B21: A10.min5 (ssRNA)
RNA: GGAGCAUACACAAGAAGUUUUUUGUGCUCUGAGUACUCAGCGUCCGUAAGGGAUAUGCUCC
modifications: 2'-F C,U
IC50 [2]: 300 nM

B22: B10.min4 (ssRNA)
RNA: GGAGCAUACACAAGAAGUGCUUCAUGCGGCAAACUGCAUGACGUCGAAUAGAUAUGCUCC
modifications: 2'-F C,U
IC50 [2]: 500 nM

B23: AMX91-G1 (ssRNA)
RNA: GGGAAAAGCGAAUCAUACACAAGAUAUGUGCCUGGGAUGGACGACAUCCCCUGUCUAAGGAUAUGCUCCGCCAGAGACCAACCGAGAA
modifications: 2'-F C,U
binding result [1]: no binding
Kd [3]: 82.3 nM

B24: AMX86-D8 (ssRNA)
RNA: GGGAAAAGCGAAUCAUACACAAGACAGAGGCAAUGAGAGCCUGGCGAUGUCAGUCGCAUCUUGCUGCUCCGCCAGAGACCAACCGAGAA
modifications: 2'-F C,U
binding result [1]: no binding
Kd [3]: 294 nM

B25: AMX86-H7 (ssRNA)
RNA: GGGAAAAGCGAAUCAUACACAAGAGAUGACUACACGCCAGUGUGCGCUUUUUGCGGAGUUAGCGGCUCCGCCAGAGACCAACCGAGAA
modifications: 2'-F C,U
binding result [1]: no binding
Kd [3]: 89.8 nM

B26: AMX91-E3 (ssRNA)
RNA: GGGAAAAGCGAAUCAUACACAAGAUUACUCCGUUAGUGUCAGUUGACGGAGGGAGCGUACUAUUGCUCCGCCAGAGACCAACCGAGAA
modifications: 2'-F C,U
binding result [1]: no binding
Kd [3]: 205 nM

From patent publication US20060193821, “Aptamers to the human IL-12 cytokine family and their use as autoimmune disease therapeutics” (published 2006)
